Source: patent US20250296984A1, “THERAPEUTIC AND DIAGNOSTIC AGENTS AND USES THEREOF” (priority 2022, published 2025)
Marks after values point to notes of the source that are not given here.

Columns and labels:
[1] = test system: control CHO cells (US28 negative); test: FACS binding to US28 negative control CHO cells; set-up: species or system Chinese hamster
Procedure: (§1) Flowcytometry was used to analyze cell surface binding by the US28 antibodies. Upon cell harvest, adherent non-infected and US28 overexpressing or HCMV infected cells were washed three times with cell staining buffer (phosphate-buffered saline (PBS (Amresco, Cleveland, 44139, USA) added 0.5% BSA and 0.05% Sodium Azide (NaN3)). The cells were trypisinized and then resuspended in DMEM with 10% FBS to inhibit the action of trypsin. The cells were then pelleted at 400×g for 10 minutes and washed three times in cell staining buffer. Cell viability and cell concentration were measured by tryphan blue viability assay and a cell counter (Countess, Invitrogen, Carlsbad, CA 92008, USA). The cell suspension was adjusted to 1×10^6 cells/mL with ice-cold cell staining buffer. The cells were blocked in 1 ml 10% FBS or 1% BSA in PBS per 1×10^6 cells, vortexed briefly, and incubated for 10-30 minutes to eliminate non-specific staining. The cells were then stained with the respective antibodies and appropriate negative controls.
(§2) In both cases (ECD1 and ECD3), the antibodies were added to the cells, vortexed and incubated on ice for 15 to 30 minutes up to overnight and washed twice with cell staining buffer to remove any unbound antibodies. In addition, the CMV Immediate Early Antigen (IE) Alexa488 Ab, MAB810X, 1:50 was included to verify HCMV infected cells in one of the experiments. Because it binds to an intracellular, HCMV encoded protein, it was added after permeabilizing the cells in 70% ethanol for 30 min on ice.
(§3) 1:500-1:5000 in cell staining buffer of the appropriate fluorescent-conjugated appropriate secondary antibodies were added and incubated on ice for 15-20 min in the dark. The cells were washed three times to remove any unbound antibodies. The cells were then fixed with 0.5% paraformaldehyde (PFA) for 30 min on ice and resuspended in 200-500 μL cell staining buffer for final flow cytometric analysis using an Accuri C6 flow cytometry system (BD Biosciences, San Jose, CA 95131, USA). Data analyses were performed using FlowJo software v8.8 (Treestar Inc. Ashland, OR 97520, USA).
(§4) Background levels were determined using the respective secondary antibodies (anti-mFc-FITC for the subclones, or anti-myc-PE for the VUN100 molecules) with CHO cells and CHO-US28 cells. Given that US28 is expressed on the cell surface, the cells were non-permeabilised for these experiments.

[2] = test system: human astrocytoma and glioblastoma tissues; test: IHC in human brain cancer cohort (astrocytoma grade 1-3, glioblastoma grade 4, NAT); set-up: key to IHC staining grade: stained negative (0); positive cytoplasmic staining (1+); moderately positive cytoplasmic staining (2+)
Excerpt: FIG. 17. Human glioblastoma tissues were studied with the US28-13-5G6-1D3 rAb and MAB810R antibodies by using IHC and with ISH analysis for HCMV DNA. […] The staining was present in several cells in each positive sample which was different from the breast cancer samples. However, the staining of the glia cells was weaker than for the US28-13-5G6-1D3 rAb. C. The brain tissue NAT is negative for 13-5G6-1D3 staining. […] The arrows indicate these signals. E. The staining of the same Gliobastoma grade IV sample is negative for the IgG antibody. F. The ISH analysis is negative for the same brain tissue NAT sample. The positive glia cells are indicated with arrows in the non-colour version of these figures. A colour version of FIG. 17 is provided on the page after the non-colour version.
FIG. 18. US28-13-5G6-1D3 staining of the human brain cancer cohort containing human astrocytoma grade 1-3 and glioblastoma grade 4 and NAT tissues. All the astrocytoma grade 1 (n=4) stained negative (0). Of the grade 2-3 astrocytomas, 6 stained negative (0), 37 had positive cytoplasmic staining (1+), and 2 had moderately positive cytoplasmic staining (2+). […] The ISH analysis confirmed presence of nuclear HCMV DNA in tumor cells of all tumor samples. Only 3 of 10 NAT samples were HCMV DNA positive.

[3] = test system: human heart muscle tissue; test: IHC on human cardiac tissue samples (TMA with malignant pheochromocytoma positive control)
Procedure: FIG. 19. A. Flowcytometry analysis with the 28-13-5G6-1D3-PE antibody were conducted on various human primary cells to exclude general off-target binding to the surface of these cell types. The following cell lines were studied: human primary adrenal cortical cells, human primary kidney epithelial cells, human primary cardiac microvascular endothelial cells, human primary liver epithelial cells and human primary vein smooth muscle cells. […] B. Original human primary cardiac cells were not available, and human cardiac tissue samples were therefore studied for staining of 13-5G6-1D3 by immunohistochemistry. […] If there were HCMV infections present in the human heart, they were always of productive infection type. […] The positive 13-5G6-1D3 and HCMV ISH results are marked with arrows in the figure. A colour version of FIG. 19 is also provided.

[4] = biological target: T1, HCMV US28 (strain DB) on CHO-US28-A1 cells (Human cytomegalovirus, UniProt P69332, D170N/D19A); test: FACS surface binding to CHO-US28-A1 cells
T1 construct: expressed in transfected cells; host or cells: CHO-K1 (vector pCDH-EF1a-MCS)
Procedure: Plasmid construction was performed to create a US28-overexpressing cell line. The US28 sequence, identical to HCMV DB strain (Acc. Number: KT959235; SEQ ID No. 5 of this application), fused to a 6His tag at its C terminal part, was inserted into the pCDH-EF1a-MCS vector (Creative Biolabs, Shirley, NY 11967, USA). The plasmid construct was transfected to CHO-K1 cell line. The cells were collected 48 hours after transfection. The cell line was named as CHO-US28-A1-6His and its protein sequence (SEQ ID NO: 47) is the following:
as §1
The primary antibodies used were I) 13-5G6-1D3 (50 μg/ml) as a positive control; II) Monovalent and Bivalent VUN100 ScFvs 1:1 (50 μg/ml); III) test antibodies for the specified subclones (1:5).
The primary antibodies used were I) 13-5G6-1D3 1:50 to 50 μg/ml; and II) Commercial US28 polyclonal antibody (50 μg/ml), III) Monovalent and Bivalent VUN100 ScFvs (50 μg/ml) and for certain experiments, the appropriate isotype controls were included.
as §2, §3, §4

B1: 7B1F3: mouse IgG1 kappa antibody against US28 ECD1 Peptide-N; VH SEQ ID NO: 211, VL SEQ ID NO: 213 (antibody, V domains shown)
VH: EVQLQQSGAELAKPGASVKMSCKASGYTFTNYWMHWVKQRPGQGLEWIGYVNPRTGYTEYNQKFKDKATLTADKSSRTAYMQLSSLTSEDSAVYSCARILNGTGFAYWGQGTLVTVSA
VL: DIVLTQSPSSLTVSVGEKFTMSCKSSQSLLYSSNQKNYLAWYQQKPGQSPKLLIYWASTRESGVPDRFTGSGSGTDFTLAISSVKPEDLAIYYCQQYYSFPLTFGAGTKLEIK
modifications: Mature form of VH sequence of 7B1F3, without the leader sequence; Mature form of VL sequence of 7B1F3, without the leader sequence
- Percentage of binding to CHO cells ([1]; Table 7B, (1:5), secondary antibody background removed): 0.67%

B2: US28-13-5G6-1D3: monoclonal antibody against ECD3 of HCMV US28; VH SEQ ID NO: 12, VL SEQ ID NO: 18; rAb is the recombinant product (antibody, V domains shown)
VH: EVKLVESGGGLVQPGGSLRLACATSGFTFTDYYMSWVRQPPGKALEWLGFIRSKANGYTTEYSASVKGRFTISRDNSQSILYLQMNTLRSEDSATYYCARDERRTAWLAYWGQGTLVTVSA
VL: DVLMTQTPLSLPVSLGDQASISCRSSQSIVHSNGNTYLDWYLQKPGQSPKLLIYKVSNRFSGVPDRFSGSGSGTDFTLKISRVEAEDLGVYYCFQGSHVPTWTFGGGTKLEIK
modifications: Mature form of VH sequence of 1D3, without the leader sequence; Mature form of VL sequence of 1D3, without the leader sequence
notes: monoclonal antibody against ECD3 of HCMV US28; rAb is the recombinant product
- IHC staining grade ([2]; all astrocytoma grade 1 (n=4)): 0
- number of tumors stained negative (0) ([2]; grade 2-3 astrocytomas): 6
- number of tumors with moderately positive cytoplasmic staining (2+) ([2]; grade 2-3 astrocytomas): 2
- number of tumors with positive cytoplasmic staining (1+) ([2]; grade 2-3 astrocytomas): 37
- IHC staining of heart muscle tissue [3]: negative
- binding to CHO-US28-A1 cells relative to any of the other 9 clones ([4]; 1:50 w/v Ab dilution): 8-10 fold
- CHO-US28-A1 cells bound/stained ([4]; comparison with commercial US28 Ab, FIG. 11A): more than 50%

B3: 13-5G6-1D3: mouse monoclonal IgG1 kappa antibody against US28 ECD3; VH SEQ ID NO: 12, VL SEQ ID NO: 18 (antibody, V domains shown)
VH: B2 VH
VL: B2 VL
modifications: Mature form of VH sequence of 1D3, without the leader sequence; Mature form of VL sequence of 1D3, without the leader sequence
- IHC staining of brain tissue NAT [2]: negative
- IHC staining of malignant pheochromocytoma ([3]; positive control on the same TMA plate): positive staining
- background binding, % of CHO negative control population ([1]; FIG. 21A): 0.88%

B4: 13-5G6-1D3 rAb: recombinant antibody product of US28-13-5G6-1D3 produced in HEK293-F cells (antibody)
heavy: EVKLVESGGGLVQPGGSLRLACATSGFTFTDYYMSWVRQPPGKALEWLGFIRSKANGYTTEYSASVKGRFTISRDNSQSILYLQMNTLRSEDSATYYCARDERRTAWLAYWGQGTLVTVSAAKTTPPSVYPLAPGSAAQTNSMVTLGCLVKGYFPEPVTVTWNSGSLSSGVHTFPAVLQSDLYTLSSSVTVPSSTWPSETVTCNVAHPASSTKVDKKIVPRDCGCKPCICTVPEVSSVFIFPPKPKDVLTITLTPKVTCVVVDISKDDPEVQFSWFVDDVEVHTAQTQPREEQFNSTFRSVSELPIMHQDWLNGKEFKCRVNSAAFPAPIEKTISKTKGRPKAPQVYTIPPPKEQMAKDKVSLTCMITDFFPEDITVEWQWNGQPAENYKNTQPIMDTDGSYFIYSKLNVQKSNWEAGNTFTCSVLHEGLHNHHTEKSLSHSPGK
light: DVLMTQTPLSLPVSLGDQASISCRSSQSIVHSNGNTYLDWYLQKPGQSPKLLIYKVSNRFSGVPDRFSGSGSGTDFTLKISRVEAEDLGVYYCFQGSHVPTWTFGGGTKLEIKRADAAPTVSIFPPSSEQLTSGGASVVCFLNNFYPKDINVKWKIDGSERQNGVLNSWTDQDSKDSTYSMSSTLTLTKDEYERHNSYTCEATHKTSTSPIVKSFNRNEC
- Binding Specificity (ratio of surface binding) ([4]; CHO-US28-A1 cells compared with US28 negative control CHO cells): 21.5*
- higher surface binding to US28 expressing CHO cells than control CHO cells ([4]; FIG. 7): > 21 times
- control CHO cells bound ([1]; 1:10 dilution (w/v), blank and secondary Ab controls removed, FIG. 7): 0.77%
